Data as given in patent US20090196872A1.

B1: human anti-M2 monoclonal antibody L66 (antibody)
chain 1: EVQLVESGGGVVRPGGSLRLSCAASGFTFDDYGMSWVRQAPGKGLEWVSGINWNGGSTGYADSVKGRFTISRDNAKNSLYLQMNSLRAEDTALYYCARDRVTMVRGVIMDYYGMDVWGQGTTVTVSS
chain 2: QTVVTQEPSLTVSPRGTVTLTCSSSTGAVTSGYYPGWFQLKPGQAPMSLIYSARKKHSWTPARFSGSLLGGKAALTLSGVQPEDEAEYYCLLYYGGAYVFGTGTKVTVLG
B2: human anti-M2 monoclonal antibody C40G1 (antibody)
chain 1: QLQLQESGPGLVKPSETLSLTCTVSGGSISSSFYYCGWIRQPPGKGLEWIGSIYYRGSTYYNPSLKSRVTISVDTSKNQFSLKLSSVTAADTAVYYCARRVTMVRGVKGDYFDYWGQGTLVTVSS
chain 2: DIQMTQSPSSLSASVGDRVTITCRASQGISSWLAWYQQKPEKVPKSLIYAASSLQSGVPSRFSGSGSGTDFTLTISSLQPEDFATYYCQQYNYYPLTFGGGTKVEIKR

Experiments:
[1] = molecular target: M2 peptide (extracellular 23-amino-acid peptide of influenza virus matrix M2 protein) (influenza A virus); experiment: peptide ELISA, antibody at 10 ug/ml
[2] = molecular target: M2 truncated peptide CM12 (influenza A virus); experiment: peptide ELISA, antibody at 10 ug/ml
[3] = molecular target: M2 truncated peptide CM13 (influenza A virus); experiment: peptide ELISA, antibody at 10 ug/ml
[4] = molecular target: M2 truncated peptide CM14 (influenza A virus); experiment: peptide ELISA, antibody at 10 ug/ml
[5] = molecular target: M2 truncated peptide CM15 (influenza A virus); experiment: peptide ELISA, antibody at 10 ug/ml
[6] = molecular target: M2 truncated peptide CM16 (influenza A virus); experiment: peptide ELISA, antibody at 10 ug/ml
[7] = molecular target: M2 truncated peptide CM17 (influenza A virus); experiment: peptide ELISA, antibody at 10 ug/ml
[8] = molecular target: M2 truncated peptide M12 (influenza A virus); experiment: peptide ELISA, antibody at 10 ug/ml
[9] = molecular target: M2 truncated peptide M15 (influenza A virus); experiment: peptide ELISA, antibody at 10 ug/ml
[10] = molecular target: M2 truncated peptide M16 (influenza A virus); experiment: peptide ELISA, antibody at 10 ug/ml
[11] = molecular target: M2 truncated peptide NM10 (influenza A virus); experiment: peptide ELISA, antibody at 10 ug/ml
[12] = molecular target: M2 truncated peptide NM11 (influenza A virus); experiment: peptide ELISA, antibody at 10 ug/ml
[13] = molecular target: M2 truncated peptide NM12 (N-terminal 12-amino acid peptide) (influenza A virus); experiment: peptide ELISA, antibody at 10 ug/ml
[14] = molecular target: M2 truncated peptide NM13 (influenza A virus); experiment: peptide ELISA, antibody at 10 ug/ml
[15] = molecular target: M2 truncated peptide NM14 (influenza A virus); experiment: peptide ELISA, antibody at 10 ug/ml
[16] = molecular target: M2 truncated peptide NM16 (influenza A virus); experiment: peptide ELISA, antibody at 10 ug/ml
[17] = molecular target: M2 truncated peptide NM17 (influenza A virus); experiment: peptide ELISA, antibody at 10 ug/ml
[18] = molecular target: M2 truncated peptide NM7 (influenza A virus); experiment: peptide ELISA, antibody at 10 ug/ml
[19] = molecular target: M2 truncated peptide NM8 (influenza A virus); experiment: peptide ELISA, antibody at 10 ug/ml
[20] = molecular target: M2 truncated peptide NN15 (influenza A virus); experiment: peptide ELISA, antibody at 10 ug/ml
[21] = molecular target: M2 truncated peptide NN9 (influenza A virus); experiment: peptide ELISA, antibody at 10 ug/ml
[22] = molecular target: M2 protein expressed on A/HK/1/68 infected MDCK cells (influenza A virus A/HK/1/68); experiment: cell-based ELISA, half-saturating antibody concentration; settings: remark: other sources report otherwise

Row | Binder | ELISA (OD450) [1] [OD450] | ELISA (OD450) [2] [OD450] | ELISA (OD450) [3] [OD450] | ELISA (OD450) [4] [OD450] | ELISA (OD450) [5] [OD450] | ELISA (OD450) [6] [OD450] | ELISA (OD450) [7] [OD450] | ELISA (OD450) [8] [OD450] | ELISA (OD450) [9] [OD450] | ELISA (OD450) [10] [OD450] | ELISA (OD450) [11] [OD450] | ELISA (OD450) [12] [OD450] | ELISA (OD450) [13] [OD450] | ELISA (OD450) [14] [OD450] | ELISA (OD450) [15] [OD450] | ELISA (OD450) [16] [OD450] | ELISA (OD450) [17] [OD450] | ELISA (OD450) [18] [OD450] | ELISA (OD450) [19] [OD450] | ELISA (OD450) [20] [OD450] | also measured
1 | B1 | 1.04 | 0.16 | 0.15 | 0.13 | 0.13 | 0.13 | 0.14 | 0.19 | 0.2 | 0.27 | 0.16 | 0.17 | 0.12 | 0.17 | 0.16 | 2.52 | 1.92 | 0.18 | 0.18 | 0.28 | ELISA (OD450) [21]: 0.16 OD450; Kd [22]: 0.531 nM
2 | B2 | 2.38 | 0.11 | 0.11 | 0.1 | 0.1 | 1.41 | 3.01 | 1.95 | 1.93 | 1.75 | 0.11 | 0.15 | 0.16 | 1.82 | 1.93 | 2.17 | 2.18 | 0.09 | 0.1 | 2.67 | ELISA (OD450) [21]: 0.13 OD450; Kd [22]: 0.542 nM
